The results in this text go back to patent US6465423 (CENTRAL SYDNEY AREA HEALTH SERVICE, dated 2002).

Sequences and labels used below:
B1: 28K IGF-binding protein BP-28 (other, human, UniProt P08833 26-259, looked up)
chain: APWQCAPCSAEKLALCPPVSASCSEVTRSAGCGCCPMCALPLGAACGVATARCARGLSCRALPGEQQPLHALTRGQGACVQESDASAPHAAEAGSPESPESTEITEEELLDNFHLMAPSEEDHSILWDAISTYDGSKALHVTNIKKWKEPCRIELYRVVESLAKAQETSGEEISKFYLPNCNKNGFYHSRQCETSMDGEAGLCWCVYPWNGKRIPGSPEIRGDPNCQIYFNVQN
notes: mature; also called purified amniotic fluid BP-28
B2: acid-labile sub-unit (ALS) of insulin like growth factor binding protein complex (other, human, UniProt P35858 28-605, looked up)
chain: ADPGTPGEAEGPACPAACVCSYDDDADELSVFCSSRNLTRLPDGVPGGTQALWLDGNNLSSVPPAAFQNLSSLGFLNLQGGQLGSLEPQALLGLENLCHLHLERNQLRSLALGTFAHTPALASLGLSNNRLSRLEDGLFEGLGSLWDLNLGWNSLAVLPDAAFRGLGSLRELVLAGNRLAYLQPALFSGLAELRELDLSRNALRAIKANVFVQLPRLQKLYLDRNLIAAVAPGAFLGLKALRWLDLSHNRVAGLLEDTFPGLLGLRVLRLSHNAIASLRPRTFKDLHFLEELQLGHNRIRQLAERSFEGLGQLEVLTLDHNQLQEVKAGAFLGLTNVAVMNLSGNCLRNLPEQVFRGLGKLHSLHLEGSCLGRIRPHTFTGLSGLRRLFLKDNGLVGIEEQSLWGLAELLELDLTSNQLTHLPHRLFQGLGKLEYLLLSRNRLAELPADALGPLQRAFWLDVSHNRLEALPNSLLAPLGRLRYLSLRNNSLRTFTPQPPGLERLWLEGNPWDCGCPLKALRDFALQNPSAVPRFVQAICEGDDCQPPAYTYNNITCASPPEVVGLDLRDLSEAHFAPC
modifications: glycoprotein (N-linked carbohydrate); 125I-iodinated (chloramine-T) where used as tracer
notes: mature; 84/86 kDa doublet on SDS-PAGE; In some experiments partially pure ALS or serum fractions (peak B) were used; also called ALS tracer

Assay [1] concerns the target B2. Briefly: competition with cross-linked BP-53-IGF-I tracer in the routine ALS assay. As for the experimental part: (§1) Samples to be tested for ALS activity were diluted to 200 μL in buffer containing 50 mmol/L sodium phosphate, 0.15 mol/L NaCl, and 0.2 g/L sodium azide, pH 6.5, with 10 g/L bovine albumin. Cross-linked BP-53-IGF-I tracer (~80,000 cpm; 4 ng) was added in 50 μL of the same buffer. After 25–30 min. of incubation at 22° C., 200 μL of the mixture was applied using a V-7 injector valve (Pharmacia) to a Superose-12 gel permeation column eluting at 1.0 mL/min (~2 megapascal pressure) in assay buffer without albumin. The column was calibrated with rabbit immunoglobulin G (Pentex; ~150K), which eluted mainly in fractions 22~24, peaking in fraction 23; BP-53-IGF-I tracer (~60K), which eluted mainly in fractions 25–27, peaking in fraction 26; IGF-I tracer bound to BP-28 (~35K, peaking in fraction 28); and IGF-I tracer (7.5K, peaking in fraction 33). Plotted as log (molecular mass) vs. elution volume, these four markers yielded a linear calibration curve (not shown). As a quantitative index of ALS activity (i.e. the degree of conversion of BP-53 to the 150K complex), the total radioactivity in fractions 22–24 was divided by that in fractions 25–27 to give a 150K/60K ratio. The values of this ratio typically varied between 0.1 and 2.0. The coefficient of variation of the 150K/60K ratio, based on analysis of variance of eight duplicate measurements covering a wide range of values, was 3.2%. […]

Assay [2] deals with T1, Cross-linked BP-53-IGF-I tracer (covalent complex of BP-53 with [125I]IGF-I) (human, UniProt P17936 28-291; P05019 49-118, 125I-iodinated; cross-linked to BP-53 with disuccinimidyl suberate; glycoprotein; cross-linked to IGF-I with disuccinimidyl suberate).
T1 construct: mature; About 60K; Used as tracer in the routine ALS assay; also called covalent BP-53-IGF-I complex; cross-linked tracer
Description: routine ALS assay, Superose-12, no serum added. The procedure: The routine assay for ALS activity was developed, based on the conversion of a covalent BP-53-IGF-I complex of approximately 60K to 150K form in the presence of ALS.
as §1, with “2.0.” for “2.0. The coefficient of variation of the 150K/60K ratio, based on analysis of variance of eight duplicate measurements covering a wide range of values, was 3.2%.”

T1 sequence (P17936 28-291, chain 1 of 2): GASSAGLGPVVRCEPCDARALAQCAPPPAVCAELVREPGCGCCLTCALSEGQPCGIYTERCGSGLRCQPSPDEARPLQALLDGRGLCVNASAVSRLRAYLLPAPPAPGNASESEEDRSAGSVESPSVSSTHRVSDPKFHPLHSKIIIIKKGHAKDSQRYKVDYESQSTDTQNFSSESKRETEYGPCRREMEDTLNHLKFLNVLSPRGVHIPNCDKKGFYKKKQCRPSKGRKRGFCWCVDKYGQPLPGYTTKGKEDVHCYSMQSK
T1 sequence (P05019 49-118, chain 2 of 2): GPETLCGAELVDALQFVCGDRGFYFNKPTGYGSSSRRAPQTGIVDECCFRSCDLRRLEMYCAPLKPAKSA

As for B1, the binding result in assay [1] is on record as “no binding (tested: 0.8 µg/mL)”.
Consider B2, for which the 150K/60K ratio in assay [2] is ~1.
